# Molecular target: hMRP5-Δ1-94-8xHis (human, UniProt O15440 95-1437, RED-tris-NTA 2nd Generation dye on the His tag)
# Assay: MST
# hMRP5-Δ1-94-8xHis, sequence (O15440 95-1437, stated change not applied): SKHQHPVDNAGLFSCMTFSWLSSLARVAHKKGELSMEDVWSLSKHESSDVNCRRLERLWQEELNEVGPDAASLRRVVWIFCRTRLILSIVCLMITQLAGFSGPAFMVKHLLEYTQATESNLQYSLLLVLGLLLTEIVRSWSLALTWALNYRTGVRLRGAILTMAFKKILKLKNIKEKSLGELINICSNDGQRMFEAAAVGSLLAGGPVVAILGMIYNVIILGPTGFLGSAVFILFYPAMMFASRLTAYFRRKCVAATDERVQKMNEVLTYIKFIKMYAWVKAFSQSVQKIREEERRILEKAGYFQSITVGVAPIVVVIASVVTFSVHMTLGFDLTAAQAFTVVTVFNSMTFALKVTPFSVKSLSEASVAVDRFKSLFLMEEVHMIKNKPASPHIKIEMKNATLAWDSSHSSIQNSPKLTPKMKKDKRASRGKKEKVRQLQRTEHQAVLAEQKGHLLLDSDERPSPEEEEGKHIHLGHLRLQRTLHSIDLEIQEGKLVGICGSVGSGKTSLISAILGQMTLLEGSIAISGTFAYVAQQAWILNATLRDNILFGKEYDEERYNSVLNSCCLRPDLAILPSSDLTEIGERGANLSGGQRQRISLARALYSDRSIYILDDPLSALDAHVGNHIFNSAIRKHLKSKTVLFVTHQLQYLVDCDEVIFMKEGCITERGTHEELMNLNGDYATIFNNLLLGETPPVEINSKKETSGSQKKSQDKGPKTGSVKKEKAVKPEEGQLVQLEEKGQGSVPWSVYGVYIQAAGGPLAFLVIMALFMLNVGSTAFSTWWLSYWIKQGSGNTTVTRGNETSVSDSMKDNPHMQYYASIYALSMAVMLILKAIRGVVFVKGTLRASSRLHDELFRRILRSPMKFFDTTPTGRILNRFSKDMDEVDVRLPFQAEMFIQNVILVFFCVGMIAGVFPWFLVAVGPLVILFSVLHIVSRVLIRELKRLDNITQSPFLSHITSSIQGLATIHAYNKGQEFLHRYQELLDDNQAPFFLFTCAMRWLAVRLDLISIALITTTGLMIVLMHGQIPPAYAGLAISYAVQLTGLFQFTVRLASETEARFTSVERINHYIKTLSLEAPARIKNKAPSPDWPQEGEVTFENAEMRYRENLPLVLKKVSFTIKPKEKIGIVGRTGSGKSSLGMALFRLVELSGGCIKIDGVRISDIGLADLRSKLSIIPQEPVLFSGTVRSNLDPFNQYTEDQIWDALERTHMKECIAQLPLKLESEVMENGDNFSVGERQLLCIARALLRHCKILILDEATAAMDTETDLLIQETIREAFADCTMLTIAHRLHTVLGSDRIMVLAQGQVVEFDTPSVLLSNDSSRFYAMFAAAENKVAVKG
row,Binder,Kd
1,DSKFRRTRPLECQDALETAARAEGLSLDASMHSQLRILDEE [Asp35-Glu75 peptide of hMRP5],34.6 µM
2,CSKFRRTRPLECQDALETAARAEGLSLDASMHSQLRILDEC [MRP5 potential peptide inhibitor (M5PI)],2.66 µM
3,CQDALETAARAEGLSLDAS [Cys46-Ser64 peptide of hMRP5],24.1 µM

# Continued by falling Kd, values first:
row,Kd,Binder
1,50.7 µM,RTRPLECQDALETAARAEGLSLDASMHSQLR [Arg40-Arg70 peptide of hMRP5]
2,24.4 µM,DIGKEYIIPSPGYRSVRERTS [Asp5-Ser25 peptide of hMRP5]
